Laboratory results taken from publication PMC3791423.

How the values were obtained:
PspA_(1–186) (E. coli) [1] = biological target: PspA_(1–186) (E. coli) (UniProt P0AFM6)
[2] = biological target: single-chain linked PspF_(1–275) WT/W56A dimer (E. coli) (UniProt P37344); experiment: SEC; linked PspF_(1–275) dimers injected at 70 μM, without and with PspA_(1–186), no nucleotide, 4 °C, Yarra Sec-S3000 column; apparent oligomers
PspA_(1–186) (E. coli) [3] = biological target: PspA_(1–186) (E. coli) (UniProt P0AFM6); experiment: as above
[4] = biological target: single-chain linked PspF_(1–275) WT/WT dimer (E. coli) (UniProt P37344); experiment: as above

stoichiometry N (PspA (1–186) subunits per PspF hexamer) (PspA_(1–186) (E. coli) [3])	stoichiometry N (PspF (1–275) subunits) [4]	Substance	reduction of RPO formation (supercoiled nifH promoter) in the presence of PspA (1–186) (PspA_(1–186) (E. coli) [1]) [%]	stoichiometry N (PspF (1–275) subunits) [2]
–	–	single-chain linked PspF_(1–275) WT/W56A dimer (from UniProt P37344 1-275; P37344 1-275)	10	6
6	6	single-chain linked PspF_(1–275) WT/WT dimer (from UniProt P37344 1-275; P37344 1-275)	100	–
